Series [1] has as its system HeLa Kyoto. The series is described as follows: solubility in G1/S (NP-40 vs SDS abundance) (log2 ratio); higher = more soluble. Particulars: cell cycle stage: G1/S.
Series [2] deals with HeLa Kyoto. The series is described as follows: thermal stability score vs G1/S (z-score of summed log2 fold changes over temperatures); higher = more thermally stable than in G1/S.
Series [3] relates to HeLa Kyoto. The series is described as follows: solubility change mitosis vs G1/S (difference of NP-40 vs SDS log2 ratios) (log2 ratio difference); higher = more soluble in mitosis.
Series [4] concerns HeLa Kyoto. The series is described as follows: melting temperature (median over replicates), in situ; higher = more thermally stable.
The mark [5] stands for this setting: cell cycle stage: early G1 (4.5 h after nocodazole release).
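Throughout, for melting temperature (median over replicates), in situ: HeLa Kyoto cells synchronized by double thymidine or nocodazole block, proteins quantified by TMT10plex mass spectrometry, three independent biological replicates.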
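Throughout, for solubility change mitosis vs G1/S (difference of NP-40 vs SDS log2 ratios): synchronized HeLa Kyoto cells (double thymidine block for G1/S, nocodazole release for mitosis), protein amounts in NP-40 versus SDS lysates quantified by mass spectrometry, three biological replicates.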
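Throughout, for solubility in G1/S (NP-40 vs SDS abundance): HeLa Kyoto cells arrested at G1/S by double thymidine block, proteins quantified by TMT10plex mass spectrometry in mild NP-40 versus SDS extracts, three biological replicates.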
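Throughout, for thermal stability score vs G1/S (z-score of summed log2 fold changes over temperatures): synchronized HeLa Kyoto cells, proteins quantified by TMT10plex mass spectrometry, three biological replicates, mitosis taken 0.5 h after nocodazole release, G1/S directly after double thymidine block.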

In the case of “MDAVNAFNQELFSLMDMKPPISRAKMILITKAAIKAIKLYKHVVQIVEKFIKKCKPEYKVPGLYVIDSIVRQSRHQFGTDKDVFGPRFSKNITATFQYLYLCPSEDKSKIVRVLNLWQKNGVFKIEIIQPLLDMAAGTSNAAPVAENVTNNEGSPPPPVKVSSEPPTQATPNSVPAVPQLPSSDAFAAVAQLFQTTQGQQLQQILQTFQQPPKPQSPALDNAVMAQVQAITAQLKTTPTQPSEQKAAFPPPEQKTAFDKKLLDRFDYDDEPEAVEESKKEDTTAVTTTAPAAAVPPAPTATVPAAAAPAAASPPPPQAPFGFPGDGMQQPAYTQHQNMDQFQPRMMGIQQDPMHHQVPLPPNGQMPGFGLLPTPPFPPMAQPVIPPTPPVQQPFQASFQAQNEPLTQKPHQQEMEVEQPCIQEVKRHMSDNRKSRSRSASRSPKRRRSRSGSRSRRSRHRRSRSRSRDRRRHSPRSRSQERRDREKERERRQKGLPQVKPETASVCSTTLWVGQLDKRTTQQDVASLLEEFGPIESINMIPPRGCAYIVMVHRQDAYRALQKLSRGNYKVNQKSIKIAWALNKGIKADYKQYWDVELGVTYIPWDKVKPEELESFCEGGMLDSDTLNPDWKGIPKKPENEVAQNGGAETSHTEPVSPIPKPLPVPVPPIPVPAPITVPPPQVPPHQPGPPVVGALQPPAFTPPLGIPPPGFGPGVPPPPPPPPFLRPGFNPMHLPPGFLPPGPPPPITPPVSIPPPHTPPISIPNSTIAGINEDTTKDLSIGNPIPTVVSGARGNAESGDSVKMYGSAVPPAAPTNLPTPPVTQPVSLLGTQGVAPGPVIGLQAPSTGLLGARPGLIPLQRPPGMPPPHLQRFPLMPPRPMPPHMMHRGPPPGPGGFAMPPPHGMKGPFPPHGPFVRPGGMPGLGGPGPGPGGPEDRDGRQQPPQQPQQQPQPQAPQQPQQQQQQQPPPSQQPPPTQQQPQQFRNDNRQQFNSGRDQERFGRRSFGNRVENDRERYGNRNDDRDNSNRDRREWGRRSPDRDRHRDLEERNRRSSGHRDRERDSRDRESRREKEEARGKEKPEVTDRAGGNKTVEPPISQVGNVDTASELEKGVSEAAVLKPSEELPAEATSSVEPEKDSGSAAEAPR [SCAF4]”, in series [1], the “solubility in G1/S (log2)” value was -0.347. Besides, the thermal stability score in series [2] (setting [5]) was 0.0642; in series [2] (cell cycle stage: mitosis), -0.063. Further, the “solubility change mitosis (log2)” value in series [3] came to 0.211. The melting temperature in series [4] (cell cycle stage: G1/S) was found to be 48.5 °C; in series [4] (cell cycle stage: mitosis), 51.4 °C.

Consider “MDWGTELWDQFEVLERHTQWGLDLLDRYVKFVKERTEVEQAYAKQLRSLVKKYLPKRPAKDDPESKFSQQQSFVQILQEVNDFAGQRELVAENLSVRVCLELTKYSQEMKQERKMHFQEGRRAQQQLENGFKQLENSKRKFERDCREAEKAAQTAERLDQDINATKADVEKAKQQAHLRSHMAEESKNEYAAQLQRFNRDQAHFYFSQMPQIFDKLQDMDERRATRLGAGYGLLSEAELEVVPIIAKCLEGMKVAANAVDPKNDSHVLIELHKSGFARPGDVEFEDFSQPMNRAPSDSSLGTPSDGRPELRGPGRSRTKRWPFGKKNKPRPPPLSPLGGPVPSALPNGPPSPRSGRDPLAILSEISKSVKPRLASFRSLRGSRGTVVTEDFSHLPPEQQRKRLQQQLEERSRELQKEVDQREALKKMKDVYEKTPQMGDPASLEPQIAETLSNIERLKLEVQKYEAWLAEAESRVLSNRGDSLSRHARPPDPPASAPPDSSSNSASQDTKESSEEPPSEESQDTPIYTEFDEDFEEEPTSPIGHCVAIYHFEGSSEGTISMAEGEDLSLMEEDKGDGWTRVRRKEGGEGYVPTSYLRVTLN [TRIP10]”, for which, in series [1], the “solubility in G1/S (log2)” value is 0.397. For the same sequence, the thermal stability score in series [2] (setting [5]) was -0.196; in series [2] (cell cycle stage: mitosis), -0.283. Further, the “solubility change mitosis (log2)” value in series [3] was -0.00359. The melting temperature in series [4] (cell cycle stage: G1/S) was 50.7 °C; in series [4] (cell cycle stage: mitosis), 49.9 °C.

Regarding “MDDTLFQLKFTAKQLEKLAKKAEKDSKAEQAKVKKALLQKNVECARVYAENAIRKKNEGVNWLRMASRVDAVASKVQTAVTMKGVTKNMAQVTKALDKALSTMDLQKVSSVMDRFEQQVQNLDVHTSVMEDSMSSATTLTTPQEQVDSLIMQIAEENGLEVLDQLSQLPEGASAVGESSVRSQEDQLSRRLAALRN [CHMP1A]”, the “solubility in G1/S (log2)” value in series [1] stood at 0.509. Also, the thermal stability score in series [2] (setting [5]) is -0.982; in series [2] (cell cycle stage: mitosis), -1.61. Besides, the “solubility change mitosis (log2)” value in series [3] was 0.313. For the same sequence, the melting temperature in series [4] (cell cycle stage: G1/S) came to 54.4 °C; in series [4] (cell cycle stage: mitosis) it was 53.9 °C.

Consider “MSEQSICQARASVMVYDDTSKKWVPIKPGQQGFSRINIYHNTASNTFRVVGVKLQDQQVVINYSIVKGLKYNQATPTFHQWRDARQVYGLNFASKEEATTFSNAMLFALNIMNSQEGGPSSQRQVQNGPSPDEMDIQRRQVMEQHQQQRQESLERRTSATGPILPPGHPSSAASAPVSCSGPPPPPPPPVPPPPTGATPPPPPPLPAGGAQGSSHDESSMSGLAAAIAGAKLRRVQRPEDASGGSSPSGTSKSDANRASSGGGGGGLMEEMNKLLAKRRKAASQSDKPAEKKEDESQMEDPSTSPSPGTRAASQPPNSSEAGRKPWERSNSVEKPVSSILSRTPSVAKSPEAKSPLQSQPHSRMKPAGSVNDMALDAFDLDRMKQEILEEVVRELHKVKEEIIDAIRQELSGISTT [EVL]”, for which, in series [1], the “solubility in G1/S (log2)” value was 0.231. Besides, the thermal stability score in series [2] (setting [5]) is -0.133; in series [2] (cell cycle stage: mitosis), -0.273. Moreover, the “solubility change mitosis (log2)” value in series [3] was -0.143. The sequence further came in with a melting temperature in series [4] (cell cycle stage: G1/S) of 50 °C.

With “MCAAQMPPLAHIFRGTFVHSTWTCPMEVLRDHLLGVSDSGKIVFLEEASQQEKLAKEWCFKPCEIRELSHHEFFMPGLVDTHIHASQYSFAGSSIDLPLLEWLTKYTFPAEHRFQNIDFAEEVYTRVVRRTLKNGTTTACYFATIHTDSSLLLADITDKFGQRAFVGKVCMDLNDTFPEYKETTEESIKETERFVSEMLQKNYSRVKPIVTPRFSLSCSETLMGELGNIAKTRDLHIQSHISENRDEVEAVKNLYPSYKNYTSVYDKNNLLTNKTVMAHGCYLSAEELNVFHERGASIAHCPNSNLSLSSGFLNVLEVLKHEVKIGLGTDVAGGYSYSMLDAIRRAVMVSNILLINKVNEKSLTLKEVFRLATLGGSQALGLDGEIGNFEVGKEFDAILINPKASDSPIDLFYGDFFGDISEAVIQKFLYLGDDRNIEEVYVGGKQVVPFSSSV [GDA]”, the “solubility in G1/S (log2)” value in series [1] was found to be 0.0143. For the same sequence, the results for the thermal stability score in series [2] (setting [5]) and in series [2] (cell cycle stage: mitosis) were -1.49 and -2.29, respectively. Moreover, the “solubility change mitosis (log2)” value in series [3] is -0.0926. Also, the melting temperature in series [4] (cell cycle stage: G1/S) came to 61.9 °C; in series [4] (cell cycle stage: mitosis), 63.7 °C.

The record behind these values is the supplement of paper PMC5998384.
